# Experimental data from paper PMC8079415, “Neutron reflectometry and NMR spectroscopy of full-length Bcl-2 protein reveal its membrane localization and conformation” (Communications Biology, 2021).
# B1: 36-mer Bax-BH3 peptide from Mus musculus (peptide)
# peptide: Ac-QPPQDASTKKLSECLRRIGDELDSNMELQRMIADVD-NH2
# notes: Bax, Mus musculus, BH3 region, 36 residues; also called Bax-derived BH3 peptide; source: synthetic peptide, bought: GenScript
# B2: Nur77 peptide (peptide)
# peptide: Ac-FSRSLHSLL-NH2
# notes: Nur77 (NR4A1), 9-residue peptide; source: synthetic peptide, bought: GenScript
# B3: Bcl-2 ΔN(1-82) (domain or fragment, human)
# chain: GSHMGPALSPVPPVVHLTLRQAGDDFSRRYRRDFAEMSSQLHLTPFTARGRFATVVEELFRDGVNWGRIVAFFEFGGVMCVESVNREMSPLVDNIALWMTEYLNRHLHTWIQDNGGWDAFVELYGPSMRPLFDFSWLSLKTLLSLALVGACITLGAYLGHK
# notes: three additional N-terminal residues left by the design of the pET-15b expression vector; added start methionine: the construct starts its N-terminus with residues MGP (M before G83, P84); Bcl-2, human, the first 82 N-terminal amino acids deleted, C-terminal residues kept (full length is 239 aa); Gene bought from GenScript and sub-cloned into pET-15b; source: E. coli, pET-15b, purified as the …
# How the values were obtained:
# Conditions in all cases: both partners purified
# [1] = target: T1, full-length human Bcl-2 protein (human, UniProt P10415 1-239); assay: NMR titration; Bax-BH3 peptide added at 1:1, 1:3, 1:6 and 1:12 molar ratio to 0.3 mM Bcl-2 or 0.25 mM Bcl-2 ΔTM; 1H-15N TROSY-HSQC, chemical shift perturbations; 5 mM DPC micelles, 20 mM NaPi, 20 mM NaCl, 2 mM TCEP, pH 6.0, 310 K
# T1 construct: three additional N-terminal residues left by the design of the pET-15b expression vector; Bcl-2 (B-cell lymphoma 2), human, full length, 239 aa; 15N (or 13C,15N) uniformly labelled for NMR; Surmise: GSH is what is left after the pET-15b His tag is cut off with thrombin; also called B-cell lymphoma 2; intact human Bcl-2; source: in DPC micelles
# [2] = target: T2, Bcl-2 ΔTM (aa 1-207) (human, UniProt P10415 1-207); assay: as above
# T2 construct: three additional N-terminal residues left by the design of the pET-15b expression vector; Bcl-2, human, residues 1-207; a stop codon ends the protein at position 207; 15N labelled for NMR; Made from the full-length construct by site-directed mutagenesis (stop codon TAA); also called Bcl-2 ∆TM; soluble variant with the C-terminal anchor removed; source: E. coli, pET-15b, purified as the …
# [3] = target: T1, full-length human Bcl-2 protein; assay: NMR titration; Nur77 peptide added at 1:6, 1:12 and 1:24 molar ratio to 0.3 mM Bcl-2; 1H-15N TROSY-HSQC, chemical shift perturbations; 5 mM DPC micelles, 20 mM NaPi, 20 mM NaCl, 2 mM TCEP, pH 6.0
# [4] = target: T3, Bim (138-174) BH3 peptide from Homo sapiens (Homo sapiens, N-terminal acetyl (Ac-); C-terminal amide (-NH2)); assay: NMR titration; Bim-BH3 peptide added at 1:1, 1:3 and 1:6 molar ratio to 0.4 mM Bcl-2ΔN(1-82); 1H-15N TROSY-HSQC; 5 mM DPC micelles, 20 mM NaPi, 20 mM NaCl, 2 mM TCEP, pH 6.0; clear samples after centrifugation
# T3 construct: Bim, Homo sapiens, residues 138-174; The peptide formed a colloidal suspension in buffer; spectra were recorded on clear samples after centrifugation; also called Bim-BH3 peptide; Bim peptide; source: synthetic peptide, bought: GenScript
# T3 sequence (peptide, as listed by the source): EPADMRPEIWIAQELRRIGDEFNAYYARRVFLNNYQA
# T2 sequence (P10415 other isoform, or with tags, fused parts or gaps mutant): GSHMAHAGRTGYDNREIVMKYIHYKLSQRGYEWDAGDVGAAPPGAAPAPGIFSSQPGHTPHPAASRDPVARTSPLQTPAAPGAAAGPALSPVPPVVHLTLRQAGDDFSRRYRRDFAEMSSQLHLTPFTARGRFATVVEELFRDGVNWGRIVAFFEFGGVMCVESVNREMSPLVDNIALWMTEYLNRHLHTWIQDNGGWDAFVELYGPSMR
binder,measurement,setting,value
B1,binding result,[1],binds
same,binding result,[2],binds
B2,binding result,[3],binds
B3,binding result,[4],binds
